Reference: publication PMC12343034, “ArnR binds a [4Fe–4S] cluster and indirectly senses anaerobicity in Corynebacteria”

T1: ArnR ([4Fe-4S] form) (Corynebacterium glutamicum ATCC 13032, UniProt Q8NR72 1-230)
T1 sequence: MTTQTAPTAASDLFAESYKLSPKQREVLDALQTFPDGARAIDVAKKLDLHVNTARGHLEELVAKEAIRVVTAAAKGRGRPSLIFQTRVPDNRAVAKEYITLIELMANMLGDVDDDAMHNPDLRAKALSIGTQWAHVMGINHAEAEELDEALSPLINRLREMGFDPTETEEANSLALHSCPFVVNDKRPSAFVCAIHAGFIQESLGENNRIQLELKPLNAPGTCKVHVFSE

B1: hmp promoter 80 bp (JC01_F/JC02_R) (dsDNA)
DNA 1: CGCCTTTCCATGCTTCATGGGTTAATTTCTACGGATTTAATCTAATTAAATAAATCCCAGGATCCAAGCAATTTGGCCTT
DNA 2: AAGGCCAAATTGCTTGGATCCTGGGATTTATTTAATTAGATTAAATCCGTAGAAATTAACCCATGAAGCATGGAAAGGCG
B2: hmp promoter 30 bp (JC05_F/JC06_R) (dsDNA)
DNA 1: GGATTTAATCTAATTAAATAAATCCCAGGA
DNA 2: TCCTGGGATTTATTTAATTAGATTAAATCC

What was measured:
ArnR ([4Fe-4S] form) [1] = molecular target: T1, ArnR ([4Fe-4S] form); test: EMSA; [4Fe-4S]; maximal binding at ~315 nM [4Fe-4S] (~32-fold over DNA); SPR: HBS+P (10 mM HEPES, 150 mM NaCl, surfactant P20) with 1 mM DTT, pH 7.4, 25 C, anaerobic; EMSA: 10 mM Tris, 54 mM KCl, 0.3% glycerol, pH 7.5, on ice; native MS: DNA in 100 mM ammonium acetate, pH 8; details: protein: recombinant; tags: C-terminal His; chain copies: 2; label: 5' 6-FAM on strand 1; blunt
ArnR ([4Fe-4S] form) [2] = molecular target: T1, ArnR ([4Fe-4S] form); test: native MS; [4Fe-4S], two clusters per dimer; complex at 71438 Da; [4Fe-4S]:[DNA] ~1; SPR: HBS+P (10 mM HEPES, 150 mM NaCl, surfactant P20) with 1 mM DTT, pH 7.4, 25 C, anaerobic; EMSA: 10 mM Tris, 54 mM KCl, 0.3% glycerol, pH 7.5, on ice; native MS: DNA in 100 mM ammonium acetate, pH 8; details: protein: recombinant; tags: C-terminal His; chain copies: 2; blunt

Binder | binding result (ArnR ([4Fe-4S] form) [1]) | binding result (ArnR ([4Fe-4S] form) [2])
B1 | binds | 
B2 |  | binds
